Laboratory results from paper PMC8134492.

Biological target: MS2-Biotin, biotinylated single-chain MS2 coat protein dimer with an AviTag in a surface loop of the second monomer (bacteriophage MS2)
Test: SEC

stoichiometry N (streptavidin molecules per VLP): 72
Substance: streptavidin (from UniProt P22629 25-183) (natural protein)
